Laboratory results published in paper PMC10750099, “Mapping immunological and host receptor binding determinants of SARS-CoV spike protein utilizing the Qubevirus platform” (The Journal of Biological Chemistry, 2023).

Molecular target: T1, recombinant human angiotensin-converting enzyme 2 (human, UniProt Q9BYF1 18-740)
T1 construct: also called rhACE2; hACE2
Assay: phage display biopanning
Details: both partners purified

T1 sequence (Q9BYF1 18-740): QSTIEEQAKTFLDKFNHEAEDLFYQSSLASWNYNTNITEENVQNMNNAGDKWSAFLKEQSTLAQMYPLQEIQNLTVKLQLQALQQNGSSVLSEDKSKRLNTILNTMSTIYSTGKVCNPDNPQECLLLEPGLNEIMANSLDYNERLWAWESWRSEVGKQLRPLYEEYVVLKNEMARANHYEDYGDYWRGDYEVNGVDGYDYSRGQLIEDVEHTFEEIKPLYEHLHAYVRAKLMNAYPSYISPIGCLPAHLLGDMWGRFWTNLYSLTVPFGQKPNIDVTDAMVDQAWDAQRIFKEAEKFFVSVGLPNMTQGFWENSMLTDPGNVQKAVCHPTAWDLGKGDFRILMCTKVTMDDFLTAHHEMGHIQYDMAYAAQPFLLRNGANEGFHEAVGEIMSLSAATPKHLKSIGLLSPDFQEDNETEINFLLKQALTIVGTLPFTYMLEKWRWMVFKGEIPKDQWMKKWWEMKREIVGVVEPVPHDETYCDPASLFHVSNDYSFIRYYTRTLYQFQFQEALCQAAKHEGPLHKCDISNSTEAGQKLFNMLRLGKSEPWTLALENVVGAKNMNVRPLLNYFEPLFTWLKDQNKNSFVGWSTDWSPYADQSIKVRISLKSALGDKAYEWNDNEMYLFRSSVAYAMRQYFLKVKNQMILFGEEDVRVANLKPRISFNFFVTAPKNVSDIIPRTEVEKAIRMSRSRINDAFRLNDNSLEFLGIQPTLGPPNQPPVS

B1: recombinant Qβ phage QβF6 displaying SARS-CoV spike fragment F6 (S425-525) at the C terminus of the A1 minor coat protein (domain or fragment)
chain: not shown
notes: also called GF6; QF6
binding result: binds
